Consider 23 sequences from the supplement of paper PMC9170038.

The test system of this data set is MS2 coat protein. In words: apparent KD of MS2 coat protein; designed switch direction (-1 OFF switch, 1 ON switch): -1; higher = weaker reporter binding. The method in brief: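 Designed RNA switches were transcribed on Illumina chips by stalled E. coli RNA polymerase and titrated with SNAP-549-labelled MS2 coat protein from 0.7 or 1.5 nM, doubling to 3 µM. Step length ran from 0.8–1.5 h at the lowest concentration to 10–20 min at the highest. The apparent KD is the median over clusters for each design, from curve-fitted normalised cluster fluorescence.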

[1] abbreviates: input ligand: microRNA oligo, concentration not stated.
Where [2] appears, read: Eterna round: R95, input ligand: FMN 200 uM.
Where [3] appears, read: Eterna round: R95, input ligand: microRNA oligo, concentration not stated.
Where [4] appears, read: Eterna round: R95, input ligand: none.

Consider “UUUAAUUUAAUUAAGAUCACAUGAGGAUCACCCAUGUAAUUAUAGGAUAUCAGCUCGUGUAGAGCUGAGAAGGAUAAUUACAUA [ExNG3/5-A3] (Eterna round: R96, puzzle: Exclusion NG 3)”, for which the “apparent KD of MS2 coat protein” value runs as follows: (input ligand: FMN 200 uM) 81.9 nM; under setting [1], 58.2 nM; (input ligand: none) 72.7 nM.
For the sequence “AUAUUGUGAGGAUAUGAAGUUAGUAUCGAAAGAUACUAAGUUCAGAAGGCACAUGAGGAUCACCCAUGUUUCUC [Long static hairpin v4] (Eterna round: R97, puzzle: Exclusion 4)”, the “apparent KD of MS2 coat protein” value by setting is: (input ligand: FMN 200 uM) 710 nM; (input ligand: none) 71.5 nM.
For “AAUCCUGAAGUUAGGAUAUGAAGUAUCACUGCACUUCAGAAGGGACUUGAGGAUCACCCAAGUAGCCGUGAGGC [jl-bmx4.4.61 ViennaUCT mod] (Eterna round: R97, puzzle: Brourd's mod of Exclusion 4)”, in that order: 156 nM and 35.6 nM.
Consider “UUUUUCUCAGGAUAUACAUGAGGAUCACCCAUGUAUAUUAAGAAUAAUACAUGGGAAUGUAGAAGGGAGCUCAU [Omei Ex3 Pseudoloop 10] (Eterna round: R97, puzzle: Exclusion 3)”, for which the “apparent KD of MS2 coat protein” value is, setting by setting: (input ligand: FMN 200 uM) 101 nM; (input ligand: none) 129 nM.
In the case of “UCACGGGACUGAGGAUAUACAUGAACCAUUUUUGUAGAAGGCAGAAUGUUAGAUCAUACACUAAACAUGAGGAUCACCCAUGUU [JR_ExcNG1_Sub025] (Eterna round: R96, puzzle: Exclusion NG 1)”, the “apparent KD of MS2 coat protein” value runs as follows: (input ligand: FMN 200 uM) 15.1 nM; under setting [1], 18.8 nM; (input ligand: none) 19.7 nM.
Regarding “GGUACUAACACGAAAGUGUUAGUACUAUAGGUUUGUGUUACAUGAGGAUCACCCAUGUCCUCAUAAGCUCGUCUUGU [JL-sv3-2.21 mat747 mod] (puzzle: Sensor v3, turn-off variant 2)”, the “apparent KD of MS2 coat protein” value runs as follows: under setting [2], 455 nM; under setting [3], 170 nM; under setting [4], 403 nM.
For “CCUUGACAUGAGGAUCACCCAUGUGAGGAUAUGAUGCGAUCGUCGAAAGACGAUAGCAUCAGAAGGCACAUAUG [Fiskers Ex 1 - 8] (Eterna round: R96, puzzle: Exclusion 1)”, the “apparent KD of MS2 coat protein” value (input ligand: FMN 200 uM) is 91.8 nM, the “apparent KD of MS2 coat protein” value under setting [1] was found to be 12.8 nM and the “apparent KD of MS2 coat protein” value (input ligand: none) was found to be 24.4 nM.
In the case of “UAAUAAAGUGUGAGGAUAUGCUGGUCCAUAGAUCAGCAGAAGGCACAUGAGGAUCACCCAUGUAAUAUAUAAAU [Mat - Exclusion 4 - JL Mod - D57] (Eterna round: R96, puzzle: Brourd's mod of Exclusion 4)”, the “apparent KD of MS2 coat protein” value under setting [1] was determined as 23.7 nM.
“GAAAAGGUAGAGGAUAUUUCAGAUCAAAGCUGCAAAGAAGGCUGCACAUGAGGAUCACCCAUGUGGUCAACAAA [Mod of Quesina 13 - Jieux - Exclusion 6] (Eterna round: R97, puzzle: Exclusion 6)”: the “apparent KD of MS2 coat protein” value by setting is: (input ligand: FMN 200 uM) 66.1 nM; (input ligand: none) 21.1 nM.
As to “UAAGAUUAUUGAGGAUAUGGUAAUUUUUAUUAACCAGAAGGCAAACUCAACAUGAGGAUCACCCAUGUAUAAAGGGUAUUAGUU [JR_ExcNG1_Sub096] (Eterna round: R96, puzzle: Exclusion NG 1)”, the “apparent KD of MS2 coat protein” value under setting [1] was determined as 51.2 nM.
As for “AUUGAUGUUGAGGAUAUGCAUAUAUUUAUAAAAGCAGAAGGCGAUACAUGAGGAUCACCCAUGUUCAUGGAAGU [JR_E6_Sub094] (puzzle: Exclusion 6)”, the “apparent KD of MS2 coat protein” value reads like this: under setting [2], 46.7 nM; under setting [3], 35 nM; under setting [4], 51.3 nM.
For the sequence “CUCAUGUGAGGAUAUGUGAUCUGCUUUCUGUGUAGAUGAUCACAGAAGGCACAUGAGGAUCACCCAUGUAGAUC [Ex4 - 3 - 28] (Eterna round: R96, puzzle: Exclusion 4)”, the “apparent KD of MS2 coat protein” value is, setting by setting: (input ligand: FMN 200 uM) 65.7 nM; under setting [1], 93.9 nM; (input ligand: none) 91 nM.
With “UUUAGUUUAGGAUAUGUAGACAUUAACAUGAGGAUCACCCAUGUAGAUCCUGAAUUGGCUACAGAAGGAAGCAUUU [Mod of Brourd 11 - Jieux - Exclusion 5] (Eterna round: R97, puzzle: Exclusion 5)”, the “apparent KD of MS2 coat protein” value (input ligand: FMN 200 uM) came to 168 nM and the “apparent KD of MS2 coat protein” value (input ligand: none) turned out to be 354 nM.
With “CUUUUGUGAGGAUAUUAGUAGUAAAUGAAUAAAAUUAUUACUAAGAAGGCACAUGAGGAUCACCCAUGUUCCUC [Mat - Exclusion 4 - Eli Mod - D1] (Eterna round: R97, puzzle: Exclusion 4)”, the “apparent KD of MS2 coat protein” value reads like this: (input ligand: FMN 200 uM) 393 nM; (input ligand: none) 54.4 nM.
For “GUACUCGGAUGACAGUCCGACAUGAGGAUCACCCAUGUUUCAUUAAGGUCGUUGCUCGUCAAACAUCACUCAACCAG [Eternabot (L1) Solution 35] (Eterna round: R97, puzzle: Sensor, turn-off variant 1)”, the “apparent KD of MS2 coat protein” value (input ligand: FMN 200 uM) was 43.2 nM and the “apparent KD of MS2 coat protein” value (input ligand: none) amounted to 51.5 nM.
“AGAGAGUCAGGAUAUCGAAGGGAGAGGAAAGGAGAGAGGGACGAGAAGGGACAUGAGGAUCACCCAUGUAGGUG [JR_Exclusion4)Sub016] (puzzle: Exclusion 4)”: the “apparent KD of MS2 coat protein” value is, setting by setting: under setting [2], 233 nM; under setting [3], 200 nM; under setting [4], 432 nM.
In the case of “UGCGGGCUUUUGAGACCUCACAUGAGGAUCACCCAUGUGCUUGUCUUGUGGGUCGGUCGGUCGUUGGCUGGCUGACG [Sensor-V1 #96] (Eterna round: R97, puzzle: Sensor, turn-off variant 1)”, the “apparent KD of MS2 coat protein” value is 19.2 nM (input ligand: FMN 200 uM) and 19.3 nM (input ligand: none).
In the case of “AUAUACAAGCAAAGAUCCUACAUGAGGAUCACCCAUGUGUUCGUCUUAUAAAGUACUAUCACGAAAGUGAUAGUACA [Mat - Sensor v3 - turn-off var 1 - Eli Mod - D80] (puzzle: Sensor v3, turn-off variant 1)”, the “apparent KD of MS2 coat protein” value runs as follows: under setting [2], 161 nM; under setting [3], 6.99 nM; under setting [4], 87.8 nM.
The like results for “CUUCACCCACCAGAGCUCACCCACAUACCUGCUCAGGUGACAUGAGGAUCACCCAUGUUUUUUGCCCGUCUUAUCUU [Atquertebi] (puzzle: Sensor v3, turn-off variant 2)” were, in that order, 33.1 nM, 181 nM and 34.3 nM.
Regarding “GGUCCACAUGAGGAUCACCCAUGUUAGGAUAUCUCGCCCGAGUCCAUAUGGGCCGGGCAGAGAAGGAAUGUGAA [Vevequbi] (puzzle: Exclusion 1)”, under setting [3], the “apparent KD of MS2 coat protein” value was found to be 17.4 nM.
On the same count and under the same terms, the same measure for “GGAUCGUAUGUCAGGAUAUACCACUGGAUACAGUGGUAGAAGGGACAUGAGGAUCACCCAUGUCCUAUCGAUCC [Fiskers BMX 4 - 51] (puzzle: Brourd's mod of Exclusion 4)”: 12 nM.
Regarding “GGUCGACAUGAGGAUCACCCAUGUCAGGAUAUCGUCACUGGAGCUUCGGCUCCAGUGACGAGAAGGGACAUAAU [E1/14-A1] (Eterna round: R97, puzzle: Exclusion 1)”, the “apparent KD of MS2 coat protein” value is, setting by setting: (input ligand: FMN 200 uM) 39.5 nM; (input ligand: none) 39.2 nM.
The like results for “ACUGGUCGAGGAUAUACAUGAGGAUCACCCAUGUGGUCACGUGACGAUAGUCACGAAUGUAGAAGGCGACCAGU [E3/3-A2] (Eterna round: R97, puzzle: Exclusion 3)” were, in that order, 15.7 nM and 123 nM.
